Publication PMC7072198, “An Epitope on EGFR Loading Catastrophic Internalization Serve as a Novel Oncotarget for Hepatocellular Carcinoma Therapy” (Cancers, 2020)

Target: T1, EGFR extracellular domain (ECD), wild type (human, UniProt P00533 25-645)
T1 construct: Epidermal growth factor receptor, human, extracellular domain; The Biacore legend and methods say only 'recombinant human EGFR' / 'EGFR protein'; also called EGFR ECD; EGFR ectodomain
Assay: ITC; MicroCal VP-ITC; nineteen 3 μL aliquots of 400 μM rLZ-8 injected into 20 μM EGFR ectodomain; single site binding model
Settings: both partners purified

stoichiometry N: 2 rLZ-8 per EGFR ECD
B1: recombinant Lingzhi-8 (rLZ-8), wild type (natural protein, Ganoderma lucidum, UniProt P14945 1-111, looked up)
chain: MSDTALIFRLAWDVKKLSFDYTPNWGRGNPNNFIDTVTFPKVLTDKAYTYRVAVSGRNLGVKPSYAVESDGSQKVNFLEYNSGYGIADTNTIQVFVVDPDTNNDFIIAQWN
notes: Lingzhi-8 (LZ-8) from Ganoderma lucidum, codon-optimised synthetic gene; Fluorescently labelled (red/green) in the cell experiments; also called rLZ-8^wt; source: Pichia pastoris X33 (pGAPZα A vector), culture supernatant, purified
